Substitutions are numbered along the chain they refer to.
How the values were obtained:
[1] = target: T1, NF-κB p50 (rhNF-κB) (Homo sapiens, UniProt P19838 P19838:1-433); experiment: SPR; PBS, 0.05% Nonidet P-40, 2.5 mM DTT, 25 C; natural consensus hairpin control; settings: tags: Promega, chain copies: 2 (inferred), known NF-κB consensus duplex strands linked via AAAA tetraloop
Experimental: (§1) The binding ability of each NF-κB p50-binding DNA aptamer clone for NF-κB p50 was determined by the surface plasmon resonance (SPR) method using BIACORE 3000 (GE Healthcare Japan Corp.). The assay in the SPR method was conducted with a temperature set to 25° C. using buffer A as a running buffer. Specifically, DNA probes (21 mer) (SEQ ID NO: 30) each having a nucleotide sequence complementary to the 3′-terminal region of each clone and having a biotinylated base at the 5′ end were immobilized onto a streptavidin-coated sensor chip (SA chip). Then, 60 μL (corresponding to 12 minutes) of a solution of each single-stranded DNA clone (95 mer) diluted to 50 nM with PBS was injected thereto at a flow rate of 5 μL/min to immobilize the clone onto the SA chip through hybridization with the probe.
(§2) Single-stranded DNA variants (68 mer, SEQ ID NOs: 31, 32, and 33; free from a sequence comprising the 5′-terminal primer sequence region) of each NF-κB p50-binding DNA aptamer clone were analyzed for their binding ability by the same SPR method as in Example 2. […] These single-stranded DNA variants used in binding analysis were prepared by chemical synthesis and gel purification. In the diagram, Cont-68 (SEQ ID NO: 34) corresponds to a single-stranded DNA in which the strands of a double-stranded DNA comprising a known NF-κB p50-binding consensus sequence were linked via adenine tetraloop (AAAA). […]

[2] = target: T1, NF-κB p50 (rhNF-κB); experiment: SPR; PBS, 0.05% Nonidet P-40, 2.5 mM DTT, 25 C; Example 2 text gives range 2.1 to 3.5 pM; settings: tags: Promega; chain copies: 2 (inferred); hairpin stem with non-Watson-Crick pairs; 95 mer
Experimental: as §1

[3] = target: T1, NF-κB p50 (rhNF-κB); experiment: SPR; PBS, 0.05% Nonidet P-40, 2.5 mM DTT, 25 C; settings: tags: Promega, chain copies: 2 (inferred)
Experimental: as §1
Single-stranded DNA variants (68 mer, SEQ ID NOs: 31, 32, and 33; free from a sequence comprising the 5′-terminal primer sequence region) of each NF-κB p50-binding DNA aptamer clone were analyzed for their binding ability by the same SPR method as in Example 2. […] These single-stranded DNA variants used in binding analysis were prepared by chemical synthesis and gel purification. In the diagram, Cont-68 (SEQ ID NO: 34) corresponds to a single-stranded DNA in which the strands of a double-stranded DNA comprising a known NF-κB p50-binding consensus sequence were linked via adenine tetraloop (AAAA). For SPR analysis, each of these single-stranded DNAs was immobilized onto the SA chip through hybridization with probes by the injection of 20 μL (corresponding to 1 minute) of a solution of each DNA fragment (68 mer) diluted to 250 nM with PBS at a flow rate of 20 μL/min.

[4] = target: T1, NF-κB p50 (rhNF-κB); experiment: SPR; PBS, 0.05% Nonidet P-40, 2.5 mM DTT, 25 C; Example 3 text gives range 5.7 to 8.7; settings: tags: Promega; chain copies: 2 (inferred); hairpin stem with two G-T and three G-A pairs
Experimental: as §1, §2

[5] = target: T1, NF-κB p50 (rhNF-κB); experiment: SPR; PBS, 0.05% Nonidet P-40, 2.5 mM DTT, 25 C; dissociation rate 10 times larger than 5R01-68; settings: tags: Promega; chain copies: 2 (inferred); hairpin
[6] = target: T1, NF-κB p50 (rhNF-κB); experiment: SPR; PBS, 0.05% Nonidet P-40, 2.5 mM DTT, 25 C; immobilized by hybridization to biotinylated probe; settings: tags: Promega; chain copies: 2 (inferred); hairpin stem with non-Watson-Crick G-A and G-T pairs
Experimental: as §1

T1 sequence (P19838 1-433, one chain of several): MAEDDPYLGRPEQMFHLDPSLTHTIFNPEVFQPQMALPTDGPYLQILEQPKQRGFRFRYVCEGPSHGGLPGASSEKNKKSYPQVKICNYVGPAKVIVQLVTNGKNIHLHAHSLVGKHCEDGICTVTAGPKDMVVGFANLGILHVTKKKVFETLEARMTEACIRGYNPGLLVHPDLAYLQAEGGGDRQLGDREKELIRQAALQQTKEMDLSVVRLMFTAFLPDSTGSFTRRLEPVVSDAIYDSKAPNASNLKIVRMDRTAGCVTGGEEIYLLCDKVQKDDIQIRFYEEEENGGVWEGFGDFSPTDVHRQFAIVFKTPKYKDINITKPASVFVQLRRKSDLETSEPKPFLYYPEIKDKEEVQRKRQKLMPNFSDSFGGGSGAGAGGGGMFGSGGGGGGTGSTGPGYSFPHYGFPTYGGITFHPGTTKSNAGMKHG

B1: Cont-68 (ssDNA)
DNA: CCTTGAAGGGATTTCCCTCCAAAAGGAGGGAAATCCCTTCAAGGTGGACTGATACGATCGATTGACAG
For B1, the Kd [1] was 3500 pM.

B2: 5R14 (ssDNA)
DNA: GTAGTCACTAATCCGTTCGAGTCATGCCACGGGGTTTCACTGTTTCGTAGATTGCATAAGGGGAAACACTGTGGACTGATACGATCGATTGACAG
For B2, the Kd [2] was 6.6 pM.

B3: 5R05 (ssDNA)
DNA: GTAGTCACTAATCCGTTCGAGTCATGCTGTAACGTAGGGGTTTCACCAACACTGCGGGAAACACTGAAGCGTGGACTGATACGATCGATTGACAG
B3 gave a Kd ([3]; hairpin stem with non-Watson-Crick pairs, 95 mer) of 2.1 pM.

B4: 5R01-68 (ssDNA)
DNA: CGGGGAATCACTGTAGGGACATTACGCAGGGGATTCACTAGGAGTGGACTGATACGATCGATTGACAG
B4 gave a Kd [4] of 5.4 pM.

B5: 5R01mut-68 (ssDNA)
DNA: B4 DNA with A10C, T12C, A28C, A37C, T39C
Work on B5 yielded a Kd [5] of 140 pM.

B6: 5R14-68 (ssDNA)
DNA: CACGGGGTTTCACTGTTTCGTAGATTGCATAAGGGGAAACACTGTGGACTGATACGATCGATTGACAG
For B6, the Kd ([3]; hairpin) was 8.7 pM.

B7: 5R01 (ssDNA)
DNA: GTAGTCACTAATCCGTTCGAGTCATGCCGGGGAATCACTGTAGGGACATTACGCAGGGGATTCACTAGGAGTGGACTGATACGATCGATTGACAG
B7 was tested, and the Kd [6] was 3.5 pM.

B8: 5R05-68 (ssDNA)
DNA: TGTAACGTAGGGGTTTCACCAACACTGCGGGAAACACTGAAGCGTGGACTGATACGATCGATTGACAG
B8 showed a Kd ([3]; hairpin) of 7.2 pM.

From patent US20140194320, “METHOD FOR PREPARING NUCLEIC ACID APTAMER” (TAGCYX BITOECNOLOGIES, published 2014)
